In article PMC8162069:

B1: Tv-GAPDH (Trichoderma virens Gv29-8) (protein)
chain: MAPIKVGINGFGRIGRIVFRNAVEHPDIEVVAVNDPFIETTYAAYMLKYDSSHGLFKGDVEVDGKDLVVNGKKVRFYTERDPANIKWSETGADYIVESTGVFTTTEKAKAHLVGGAKKVIISAPSADAPMYVMGVNENDYNGSADVISNASCTTNCLAPLAKVINDNYGIVEGLMTTVHSYTATQKTVDGPSAKDWRGGRGAAQNIIPSSTGAAKAVGKVIPSLNGKLTGMSIRVPTANVSVVDLTVRLEKGATYAEITETIKKAADGPLKGVLAYTNDDVVSSDMLGNTNSSIFDIKAGISLNDNFVKLVSWYDNEWGYSRRVLDLLAHVAKVDASK
B2: HepG (Trichoderma virens Gv29-8; A201L) (protein)
chain: MVPKVGINGFGRIGRVVLRNALETGAVEVVALNDPFIEPHYAEYMFKYDSTHGRFKGDIKVDGKDLVIDGKRIKFYQERDPANIPWKDSGAEYIVESTGVFTTTEKASAHFKGGAKKVIISAPSADAPMYVMGVNEDTYAGANVISNASCTTNCLAPLAKTLNDKFTIVEGLMTAIHAYTASQKTVDGPSSKDWRGGRAALQNLIPSSTGAAKAVGKVIPELAGKVTGMSVRVPTVNVSLVDFTVRFAKDVTYDEVKAAIKEASEGPLKGILAYTEDDIVSTDILTDPHSSTFDAKAGIALNKNFVKVMSWYDNEYGYSRRVVDLIVFVSKKDAGQ
B3: HepG (Trichoderma virens Gv29-8) (protein)
chain: MVPKVGINGFGRIGRVVLRNALETGAVEVVALNDPFIEPHYAEYMFKYDSTHGRFKGDIKVDGKDLVIDGKRIKFYQERDPANIPWKDSGAEYIVESTGVFTTTEKASAHFKGGAKKVIISAPSADAPMYVMGVNEDTYAGANVISNASCTTNCLAPLAKTLNDKFTIVEGLMTAIHAYTASQKTVDGPSSKDWRGGRAAAQNLIPSSTGAAKAVGKVIPELAGKVTGMSVRVPTVNVSLVDFTVRFAKDVTYDEVKAAIKEASEGPLKGILAYTEDDIVSTDILTDPHSSTFDAKAGIALNKNFVKVMSWYDNEYGYSRRVVDLIVFVSKKDAGQ

What follows are proteins tested on O=C[C@H](O)COP(=O)(O)O (assay: purified protein). Settings: without HA.
Assay type: biochemical, Trichoderma virens
B1 was tested, and the Km was 1100 ± 200 µM, the kcat was 115 ± 21.7 s⁻¹ and the kcat/Km was 105000 M⁻¹ s⁻¹. In the case of B2, the Km is reported as 260 ± 50 µM, the kcat is reported as 21.7 ± 3.33 s⁻¹ and the kcat/Km is reported as 83300 M⁻¹ s⁻¹. Protein B3 has a Km of 280 ± 50 µM, a kcat of 41.7 ± 6.67 s⁻¹ and a kcat/Km of 148000 M⁻¹ s⁻¹.
